Data from patent publication US20140303084A1 (Biogen, published 2014).
Square brackets hold non-standard residues; d marks the D form. Primed or numbered codes have the meaning given here. Side chains are listed from the residue outwards. Ends that are not written are not given here. * marks the point of attachment. Biotin = O=C1N[C@H]2[C@H](CS[C@H]2CCCCC(=O)*)N1; PEG2(3) = PEG2 spacer carrying biotin on Lys; Pra = C#CC[C@H](N)C(=O)O; PEG4′ = PEG4 spacer

What follows are binders tested against human Factor IXa (human, UniProt P00740 47-191; P00740 227-461) (assay: cell-based or functional assay).

Binder | EC50 [µM], FXa generation assay [µM]
SRSRTVSPGSRSASGKSTCLASYCWLFWTGIA | < 0.5
GSVRRALFVAARAPAKLTCLASYCWLFWTGIA [GSVRRALFVA ARAPA KLTCLASYCWLFWTGIA] | < 0.5
RRFVGGSLSQRRAPGKLTCLASYCWLFWTGIA [RRFVGGSLSQ RRAPG KLTCLASYCWLFWTGIA] | < 0.5
PRIRTVGPGSRSASGKLTCLASYCWLFWTGI | < 0.5
PTDTGPVISGLRAPGKLTCLASYCWLFWTGIA [PTDTGPVISG LRAPG KLTCLASYCWLFWTGIA] | < 0.5
[Pra][PEG4′]PRI[dR]TVGPGS[dR]SASGKSTCLASYCWLFWTGIA (not fully specified (C-terminus); printed as Pra-PEG4-PRIrTVGPGSrSASGKSTCLASYCWLFWTGIA; cysteine pairing not given here) [Pra-PEG4-PRIrTVGPGSrSASGKSTCLASYCWLFWTGIA] | > 1
SKQGRPISPDRRAAGKLTCLASYCWLFWTGIA[PEG2(3)]K([PEG2(3)-Biotin]) (cysteine pairing not given here) [SKQGRPISPDRRAAGKLTCLASYCWLFWTGIA-PEG2-K(PEG2-Biotin)] | > 1
PRIRTVGPGSRSASGKSTCLASYCWLFWTGIAX (not fully specified; D-Arg 4, D-Arg 11, C-terminal PEG4-Pra) [PRIrTVGPGSrSASGKSTCLASYCWLFWTGIA-PEG4-Pra] | < 0.5
PSIRTVGPGSRSASGKLTCLASYCWLFWTGIA (not fully specified; cysteine pairing not given here) | < 0.5
PRIRTVGPGSRSASGKLTCLASACWLFWTGIA | > 1
PRIRTVGPGSRSASGKLTCLASYCWLFWTFIA | < 0.5
PRIRTVGPGSRSASGKLTCAASYCWLFWTGIA | > 1
PRIRTVSPGSRSASGKSTCLASYCWLFWTGIA | < 0.5
PRIRTVGPGSRSASGKLTCLASYCWLFATGIA | < 0.5
SRIRTVSPGSRSASGKSTCLASYCWLFWTGIA | < 0.5
PRIRTVGPGSRSASGKLSCLASYCWLFWTGIA | < 0.5
PRIRTVGPGSRSASGKLTCLASYCWLLWTGIA | < 0.5
PRIRTVGPSSRSASGKLTCLASYCWLFWTGIA | < 0.5
PRIRTVGPGSRSASGKLTCLASYCWLFFTGIA | < 0.5

Binder | EC50 [µM], FXa generation assay [µM]
PRIRSVGPGSRSASGKLTCLASYCWLFWTGIA | < 0.5
PRIRTVGPGSRSASGKLTCLASYCWLFLTGIA | < 0.5
PRIRTVGPGSRSASGKLTCLASYCWLFWSGIA | < 0.5
PRIRTVGSGSRSASGKLTCLASYCWLFWTGIA | < 0.5
PRSRTVGPGSRSASGKSTCLASYCWLFWTGIA | < 0.5
SRIRTVGPGSRSASGKSTCLASYCWLFWTGIA | < 0.5
PRIRTVGPGSRSASGKLTCSASYCWLFWTGIA | > 1
PRISTVGPGSRSASGKLTCLASYCWLFWTGIA | < 0.5
PRIRTVGPGSRSASGKSTCLASYCWLFWTGIA | < 0.5
PRIRTSGPGSRSASGKLTCLASYCWLFWTGIA | < 0.5
PRIRTVSPGSRSASGKLTCLASYCWLFWTGIA | < 0.5
PRIRTVGPGSRSASGKLTCLASYCWLFWTSIA | < 0.5
PRIRTVGPGSRSASGKLTCFASYCWLFWTGIA | > 1
PRIRTVGPGSRSASGKLTCLASYCWLAWTGIA | > 1
PRSRTVGPGSRSASGKLTCLASYCWLFWTGIA | < 0.5
PRIRTVGPGSRRASGKLTCLASYCWLFWTGIA | < 0.5
PRIRTVGPGSRSASGKLTCVASYCWLFWTGIA | > 1
PRIRTVGPGSRSASGKLTCLASYCWLFWTLIA | < 0.5
SRI[dR]TVSPGS[dR]SASGKSTCLASYCWLFWTGIA (not fully specified; printed as SRIrTVSPGSrSASGKSTCLASYCWLFWTGIA; cysteine pairing not given here) [SRIrTVSPGSrSASGKSTCLASYCWLFWTGIA] | > 1
